Test results taken from PMC6326814.

Assays:
[1] = target: BbvCI R2 subunit, wild type (Geobacillus brevis); experiment: SEC; purified enzyme at pH 7.5 (pH of the storage buffer); sample with 1:1 subunits by Supplementary Figure S1
[2] = target: BbvCI R2 subunit, wild type (Geobacillus brevis); experiment: crystal structure; crystal form 1, grown from the purified enzyme with dsDNA oligos against 0.8 M ammonium sulfate, 100 mM sodium acetate pH 4.5, 2 mM CaCl2; only R2 in the crystal

Substance	stoichiometry N [1]	stoichiometry N [2]
BbvCI R1 subunit, wild type (enzyme)	1 R1:R2	–
BbvCI R2 subunit, wild type (enzyme)	–	2
